Positions count from the first letter of the chain named. Like-named read-outs stand apart in the source and are kept apart here.
Key:
[1] = molecular target: T1, recombinant Fc chimeric conjugate of human IGF-1R (human, UniProt P08069 31-935); assay: ELISA, coated antigen
T1 construct: extracellular domain; Coated on the ELISA plate
Experimental: (§1) Microtiter plates were coated with a) c-Met, IGF-1R, EGFR, HER2, and/or HER3 protein or b) EGFR, HER2, and/or HER3 (recombinant Fc chimeric conjugates of human c-Met, IGF-1R, EGFR, HER2, HER3 or IL12 Rβ1). After a blocking process, specific antibodies from B-cell supernatants bind to the targets and are then detected by a POD-labeled anti-rabbit IgG antibody. The IL12R binding was used as a counter-screen.
(§2) 12.5 μL 0.5 μg/mL protein in PBS was transferred to a microtiter plate incubated and washed 3× with Wash Buffer. 90 μL Block Buffer was added to each well, incubated and washed. 12.5 μL Standard Antibody (Anti-EGF-Receptor; HER2 Rabbit anti-Human Monoclonal (extracellular domain) (SP3) Antibody; HER3 (N-terminal) antibody; start concentration 2 μg/ml; IL-12Rbeta1 antibody start concentration 500 ng/ml) in 1:2 dilutions or sample diluted in ELISA buffer was added, incubated and washed. 12.5 μl 1:5000 POD-Antibody (Anti-rabbit IgG, peroxidase-linked species-specific Fab2 fragment (from donkey) (ECL); assay dilution: 1:5000) in Elisa Buffer was added, incubated and washed. 15 μl TMB was added and 15 μl HCl was added after sufficient development. Absorbance (Optical Density O.D.) was read at 450 nm/620 nm.

[2] = molecular target: T2, recombinant Fc chimeric conjugate of human HER2 (human, UniProt P04626 23-652); assay: ELISA, coated antigen
T2 construct: extracellular domain; Coated on the ELISA plate
Experimental: as §1, §2

[3] = molecular target: T3, recombinant Fc chimeric conjugate of human EGFR (human, UniProt P00533 25-645); assay: ELISA, coated antigen
T3 construct: extracellular domain; Coated on the ELISA plate; also called HER1; Her1
Experimental: as §1, §2

[4] = molecular target: T4, recombinant Fc chimeric conjugate of human HER3 (human, UniProt P21860 20-643); assay: ELISA, coated antigen
T4 construct: extracellular domain; Coated on the ELISA plate
T4 sequence (P21860 20-643, change not shown): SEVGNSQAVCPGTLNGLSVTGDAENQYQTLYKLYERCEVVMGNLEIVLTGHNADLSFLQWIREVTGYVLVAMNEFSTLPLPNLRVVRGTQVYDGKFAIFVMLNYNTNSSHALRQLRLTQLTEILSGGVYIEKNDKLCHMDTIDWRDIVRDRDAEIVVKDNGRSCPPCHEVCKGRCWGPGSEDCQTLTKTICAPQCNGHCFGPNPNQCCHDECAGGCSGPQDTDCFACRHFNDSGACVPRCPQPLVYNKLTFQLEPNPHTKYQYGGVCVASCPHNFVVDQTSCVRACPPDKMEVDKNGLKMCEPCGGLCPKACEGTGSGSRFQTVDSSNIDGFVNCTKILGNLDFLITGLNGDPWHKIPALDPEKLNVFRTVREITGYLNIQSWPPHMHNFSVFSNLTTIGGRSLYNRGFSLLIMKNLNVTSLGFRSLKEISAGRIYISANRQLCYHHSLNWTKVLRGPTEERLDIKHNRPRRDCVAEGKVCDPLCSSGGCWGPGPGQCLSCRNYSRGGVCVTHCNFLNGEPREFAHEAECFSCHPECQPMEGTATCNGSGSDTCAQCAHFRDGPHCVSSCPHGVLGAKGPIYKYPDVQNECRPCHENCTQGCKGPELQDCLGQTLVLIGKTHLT
Experimental: as §1, §2

[5] = molecular target: T3, recombinant Fc chimeric conjugate of …; assay: ELISA, coated antigen; supernatant IgG 1500.0 ng/ml
Experimental: as §1, §2

[6] = molecular target: T2, recombinant Fc chimeric conjugate of …; assay: as above
Experimental: as §1, §2

[7] = molecular target: T3, recombinant Fc chimeric conjugate of …; assay: ELISA, coated antigen; remark: listed apart in the source
Experimental: as §1, §2

[8] = molecular target: T2, recombinant Fc chimeric conjugate of …; assay: ELISA, coated antigen; remark: listed apart in the source
Experimental: as §1, §2

[9] = molecular target: T3, recombinant Fc chimeric conjugate of …; assay: ELISA, coated antigen; supernatant IgG 81.8 ng/ml
Experimental: as §1, §2

[10] = molecular target: T2, recombinant Fc chimeric conjugate of …; assay: ELISA, coated antigen; supernatant IgG 81.8 ng/ml
Experimental: as §1, §2

[11] = molecular target: T4, recombinant Fc chimeric conjugate of …; assay: ELISA, coated antigen; supernatant IgG 81.8 ng/ml
Experimental: as §1, §2

[12] = molecular target: T3, recombinant Fc chimeric conjugate of …; assay: ELISA, coated antigen; supernatant IgG 719.9 ng/ml
Experimental: as §1, §2

[13] = molecular target: T2, recombinant Fc chimeric conjugate of …; assay: ELISA, coated antigen; supernatant IgG 719.9 ng/ml
Experimental: as §1, §2

[14] = molecular target: T4, recombinant Fc chimeric conjugate of …; assay: ELISA, coated antigen; supernatant IgG 719.9 ng/ml
Experimental: as §1, §2

[15] = molecular target: T3, recombinant Fc chimeric conjugate of …; assay: ELISA, coated antigen; supernatant IgG 377.5 ng/ml
Experimental: as §1, §2

[16] = molecular target: T2, recombinant Fc chimeric conjugate of …; assay: ELISA, coated antigen; supernatant IgG 377.5 ng/ml
Experimental: as §1, §2

[17] = molecular target: T4, recombinant Fc chimeric conjugate of …; assay: ELISA, coated antigen; supernatant IgG 377.5 ng/ml
Experimental: as §1, §2

[18] = molecular target: T3, recombinant Fc chimeric conjugate of …; assay: ELISA, coated antigen; supernatant IgG 1148.9 ng/ml
Experimental: as §1, §2

[19] = molecular target: T2, recombinant Fc chimeric conjugate of …; assay: as above
Experimental: as §1, §2

[20] = molecular target: T4, recombinant Fc chimeric conjugate of …; assay: as above
Experimental: as §1, §2

T1 sequence (P08069 31-935, change not shown): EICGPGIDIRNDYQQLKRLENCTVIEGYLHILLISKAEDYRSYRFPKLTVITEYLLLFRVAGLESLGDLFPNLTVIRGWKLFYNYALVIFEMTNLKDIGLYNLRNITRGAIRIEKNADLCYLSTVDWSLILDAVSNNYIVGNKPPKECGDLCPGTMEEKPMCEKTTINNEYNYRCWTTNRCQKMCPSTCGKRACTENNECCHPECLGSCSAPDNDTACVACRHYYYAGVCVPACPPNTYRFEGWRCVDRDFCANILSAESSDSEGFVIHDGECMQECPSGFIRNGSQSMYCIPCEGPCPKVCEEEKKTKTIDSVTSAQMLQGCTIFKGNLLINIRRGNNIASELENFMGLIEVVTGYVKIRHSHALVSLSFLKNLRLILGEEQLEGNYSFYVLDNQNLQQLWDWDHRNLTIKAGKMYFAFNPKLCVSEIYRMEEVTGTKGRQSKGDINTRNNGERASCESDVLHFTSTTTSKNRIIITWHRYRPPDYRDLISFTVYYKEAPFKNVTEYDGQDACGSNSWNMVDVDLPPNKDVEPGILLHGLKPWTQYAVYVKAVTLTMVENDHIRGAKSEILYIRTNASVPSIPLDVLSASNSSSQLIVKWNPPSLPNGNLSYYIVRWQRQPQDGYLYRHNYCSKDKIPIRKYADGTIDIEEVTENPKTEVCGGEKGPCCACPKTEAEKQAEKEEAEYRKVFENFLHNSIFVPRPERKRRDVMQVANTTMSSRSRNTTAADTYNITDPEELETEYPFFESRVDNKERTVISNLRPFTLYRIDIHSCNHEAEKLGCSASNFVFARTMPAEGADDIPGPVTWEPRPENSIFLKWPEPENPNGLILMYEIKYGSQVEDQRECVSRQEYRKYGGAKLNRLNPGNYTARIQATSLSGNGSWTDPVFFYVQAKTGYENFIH

B1: Antibody D02 (antibody, V domains shown)
VH: QSLEESGGRLVTPGTPLTLTCTASRFSLSSYGVNWVRQAPGKGLQWIGYSHTDGSAYYTNWAKGRFTISRTSTTVDLKITSPTTADTATYFCWRGGLWGQGTLVTVSS
VL: AQVLTQTPSSVSAAVGGTVTINCQASQSVYKNNYLSWYQQKPGQPPKRLIYTASTLASGVPSRFKGSGSGTEFTLTISDVQCDDAATYYCVGGYDCSSADCNAFGGGTEVVVK
notes: rabbit IgG in B-cell supernatant
- binding result [1]: no binding (tested: OD 0.1 or lower)

B2: Antibody D08 (antibody, V domains shown)
VH: QSLEESGGRLVTPGTPLTLTCTVSGFSLGTYWMSWVRQAPGRGLDWIGFIGSSGNGNYASWAKGRFTISRASSTTVDLKMTSLTTEDTATYFCARVKYFYYFDLWGQGTLVTVSS
VL: AQVLTQTTSPVSAAVGGTVTINCQASESVYGKKYLSWYQQKPGQPPKQLIYEASKLASGVPSRFEGSGSGTQFTLTISGVQCDDAATYYCQGEFSCSSADCTAFGGGTEVVVK
notes: as for B1
- binding result [2]: no binding (tested: OD 0.1 or lower)
- binding result [1]: no binding (tested: OD 0.1 or lower)

B3: Antibody 87 (antibody, V domains shown)
VH: QSVEESGGRLVTPGTPLTVTCTVSGFSLSSYVMSWVRQAPGKGLEWIGIIASSGHTYYATWAKGRFTISKTSTTVDLKITSPTTEDTATYFCARYGSDSGWGYYFTLWGPGTLVTVSS
VL: AQVLTQTPSSVSEPVGGTVTINCQASENIYSYLSWYQQKRGQPPKLLIYGASTLASGVPSRFKGSGSGTEYTLTISDLECDDAATYYCQSGYYTNSGDLAFGGGTEVVVK
notes: as for B1
- binding result [3]: no binding (tested: OD 0.1 or lower)

B4: Antibody 77 (antibody, V domains shown)
VH: QSVEESGGRLVTPGTPLTLTCTISGFSLNNYWMSWVRQAPGKGLEWIGIISSSDTTWYASWAKGRFTISRTSTTVDLKMTSLTTEDTATYFCARDRGDVGYSDLDLWGPGTLVTVSS
VL: AYDMTQTPASVEVAVGGTVTIKCQASQSISSYLSWYQQKPGQPPKLLIYKASTLASGVSSRFSGSGSGTEFTLTISGVQCDDAATYYCQQGYSESNLDNAFGGGTEVVVK
notes: as for B1
- binding result [4]: no binding (tested: OD 0.1 or lower)
- Optical density (OD) [5]: 1.5 OD
- Optical density (OD) [6]: 2.5 OD

B5: Antibody B02 (antibody, V domains shown)
VH: QSVEESGGRLVTPGTPLTLTCTVSGFSLSSYDMIWVRQAPGKGLEYIGIINTGGSAHYARWANGRFTISKTSTKVDLKITSPTIEDTATYFCARRDFGVSSKLWGQGTLVTVSS
VL: DIVMTQTPASVSAAVGGTVTINCQASEDIGNWLAWYQQKPGQRPKLLIYAASDLASGVPSRFKGSGSGTDFTLTISGLECADAATYYCQGGFFGSGFVYAFGGGTEVVVK
notes: as for B1
- binding result [7]: no binding (tested: OD 0.1 or lower)

B6: Antibody 23 (antibody, V domains shown)
VH: QSLEESGGRLVKPGTPLTLTCTASGFSLSSYYMIWVRQAPGKGLEYIGIISSSGSTYYASWAKGRFTISKTSSTTVDLKMTSLTTEDTATYFCGVNNLWGQGTLVTVSS
VL: DPVLTQTPSSVSAAVGGTVTISCQSSQSINNNDLSWFQKKPGQPPKRLIYEASTLTSGVPSRFKGSGSGTQFTLTISDVQCDDAATYYCLGGYYSYGWYFGFGGGTEVVVK
notes: as for B1
- binding result [8]: no binding (tested: OD 0.1 or lower)

B7: Antibody 47 (antibody, V domains shown)
VH: QSVEESGGRLVTPGTPLTLTCTVSGFSLSSYAMNWVRQAPGKGLEWIGIIDSSGITYYATWAKGRFTISKTSTTVDLKMTSLTTEDTATYFCARGVTLWGQGTLVTVSS
VL: AQVLTQTASPVSAAVGSTVTINCQASQSVYNNNRLSWFQQKPGQPPKLLISGASTLASGVSSRFSGSGSGTQFTLTISDVQCDDAATYYCLGSYDCSSADCGAFGGGTEVVVK
notes: as for B1
- binding result [3]: no binding (tested: OD 0.1 or lower)

B8: Antibody A05 (antibody, V domains shown)
VH: QSLEESGGRLVTPGGSLTLTCTVSGIDLSSYAVAWVRQAPGKGLQYIGFFDKSGNVYYASWAKGRFTISRTSSTTVDLKMTSLTTEDTATYFCGRGSGGSDLWGQGTLVTVSS
VL: DVVMTQTPASVEAAVGGTVTIKCQASQSISGYLAWFQQKPGQPPKLLIYGASTLASGVPSRFKGSGSGTEFTLTISDLECADAATYYCQSYYTTSATSYGNAFGGGTEVVVK
notes: as for B1
- binding result [7]: no binding (tested: OD 0.1 or lower)

B9: Antibody 48 (antibody, V domains shown)
VH: QSLEESGGDLVKPGASLTLTCTASGFDLNSDYWICWVRQAPGKGLEWIACIDTGYGDIYYASWAKGRFTISKTSSTTVTLQMTSLTAADTATYFCAREIIFHFNLWGPGTLVTVSS
VL: DVVMTQTPASVSEPVGGTVTIKCQASQSIRSYLAWYQQKPGQPPKVLIYKASTLASGVSSRFKGSGSGTQFTLTISDLECADAATYYCQGGVELNNYLYNPFGGGTEVVVK
notes: as for B1
- Optical density (OD) [9]: 1.2 OD
- Optical density (OD) [10]: 1.2 OD
- Optical density (OD) [11]: 1.1 OD

B10: Antibody 37 (antibody, V domains shown)
VH: B9 VH with K12Q, G14E, A15G, T22K, F26L, L28F, N29S, D31S, I70M, I99K
VL: B9 VL with R30K, S31N, A34S, I48L, L94V
notes: as for B1
- Optical density (OD) [12]: 2.9 OD
- Optical density (OD) [13]: 2.7 OD
- Optical density (OD) [14]: 2.7 OD

B11: Antibody 49 (antibody, V domains shown)
VH: B9 VH with D31N
VL: B9 VL with R30S, L94V
notes: as for B1
- Optical density (OD) [15]: 2.5 OD
- Optical density (OD) [16]: 0.4 OD
- Optical density (OD) [17]: 0.6 OD

B12: Antibody 25 (antibody, V domains shown)
VH: B9 VH with T20I, S30T, D31N, T53S, S62T, T73A
VL: B9 VL with L94F, P101S
notes: as for B1
- Optical density (OD) [18]: 3.3 OD
- Optical density (OD) [19]: 2.4 OD
- Optical density (OD) [20]: 2.6 OD

B13: Antibody G04 (antibody, V domains shown)
VH: QSLEESGGDLVKPGASLTLTCKASGFTISSSYYMCWVRQAPGKGLEWVACSYDGDGSTYYANWAKGRFTTSKTSSTTVTLQMTSLTAADTATYFCARGSYVSRSYYDKWDLWGQGTLVTVSS
VL: EVVMTQTPASVSEPVGGTVTIKCQASQYISSYLSWYQQKPGQPPKLLIYAASNLASGVPSRFKGSGSGTEFTLTISGVQCDDAATYYCQNNYYISGYGTAFGGGTEVVVK
notes: as for B1
- binding result [7]: no binding (tested: OD 0.1 or lower)

B14: Antibody 68 (antibody, V domains shown)
VH: QSVEESGGRLVTPGTPLTLTCTVSGFSLSTYSMSWVRQAPGKGLEWIGTIAISGTTYYASWAKGRFTISKSSTTVDLKISSPTTEDTATYFCARYVSDLIGTNLWGPGTLVTVSS
VL: DVVMTQTPASVSEPVGGTVTIKCQASQSIGSNLAWHQQKPGQPPKLLIYAASNLASGVSSRFKGSRSGTEYTLTISAVQCDDAATYYCQYTYYGSSVVIGTFGGGTEVVVK
notes: as for B1
- binding result [4]: no binding (tested: OD 0.1 or lower)
- Optical density (OD) [6]: 2.7 OD

Reference: patent US20150259430A1 (MAB DISCOVERY, published 2015)
